The values below come from paper PMC3575853 (Nucleic Acids Research, 2013).

In data set [1] the target is RPA70 residues 181-616 (70ABC subunit of the human RPA DNA-binding core, RPA-DBC) (human, UniProt P27694 181-616). Kind of data set: SEC-MALS. (SEC sorts molecules by how far they enter the pores of the column.)
For data set [2], the target named is RPA-DBC (RPA70ABC/32D/14 DNA-binding core) (human, UniProt P27694;P15927;P35244 181-616;43-171;1-121). Kind of data set: SANS / gel filtration.
RPA-DBC (RPA70ABC/32D/14 DNA-binding core), sequence (P27694 181-616, chain 1 of 2): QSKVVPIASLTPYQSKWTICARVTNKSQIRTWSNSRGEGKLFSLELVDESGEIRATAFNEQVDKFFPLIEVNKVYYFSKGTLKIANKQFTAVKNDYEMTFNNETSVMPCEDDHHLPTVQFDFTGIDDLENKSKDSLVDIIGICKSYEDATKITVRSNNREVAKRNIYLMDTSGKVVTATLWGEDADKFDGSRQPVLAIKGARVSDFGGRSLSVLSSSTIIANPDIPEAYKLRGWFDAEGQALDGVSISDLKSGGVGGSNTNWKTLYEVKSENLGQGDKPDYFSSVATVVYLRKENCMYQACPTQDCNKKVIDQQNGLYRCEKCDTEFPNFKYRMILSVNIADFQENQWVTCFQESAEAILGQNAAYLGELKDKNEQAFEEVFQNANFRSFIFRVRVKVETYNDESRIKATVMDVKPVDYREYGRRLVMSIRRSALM
RPA-DBC (RPA70ABC/32D/14 DNA-binding core), sequence (P35244 whole entry, chain 3 of 2): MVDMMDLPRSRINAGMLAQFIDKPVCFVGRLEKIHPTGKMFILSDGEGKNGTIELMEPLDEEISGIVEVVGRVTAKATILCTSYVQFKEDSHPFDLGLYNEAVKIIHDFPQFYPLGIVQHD

RPA70 residues 181-616 (70ABC subunit of the human RPA DNA-binding core, RPA-DBC), sequence (P27694 181-616): as the sequence (P27694 181-616, chain 1 of 2) above

B1: RPA32 residues 43-171 (32D subunit of the human RPA DNA-binding core, RPA-DBC) (domain or fragment)
chain: AQHIVPCTISQLLSATLVDEVFRIGNVEISQVTIVGIIRHAEKAPTNIVYKIDDMTAAPMDVRQWVDTDDTSSENTVVPPETYVKVAGHLRSFQNKKSLVAFKIMPLEDMNEFTTHILEVINAHMVLSK
For B1, in data set [1], the binding result was “binds”.

B2: dT30 (ssDNA)
DNA: TTTTTTTTTTTTTTTTTTTTTTTTTTTTTT
In the case of B2, in data set [2], the binding result was “binds”.
